Assay results reported in patent publication US20250152746A1, “BASE EDITING OF ANGPTL3 AND METHODS OF USING SAME FOR TREATMENT OF DISEASE” (Verve Therapeutics, Inc., priority 2020, published 2025).
In the oligonucleotide strings, read from the 5' end, every base follows the letter of its sugar. An asterisk marks phosphorothioate; unmarked linkages are phosphodiester. Other units and linkages are bracketed, terminal groups are in braces. A string of capitals states the bases alone. m = 2'-O-methyl; r = 2'-OH (RNA)

B1: GA244: PCSK9 gRNA; protospacer TTCCGAATAAACTCCAGGCC (SEQ ID NO: 237) (nucleic acid)
guide: UUCCGAAUAAACUCCAGGCCGUUUUAGAGCUAGAAAUAGCAAGUUAAAAUAAGGCUAGUCCGUUAUCAACUUGAAAAAGUGGCACCGAGUCGGUGCUUUU
modifications: sugars from the 5' end m3 r94 m3, linkages s3 o93 s3 (s phosphorothioate, o phosphodiester), T or U not given here
B2: GA238: PCSK9 gRNA; protospacer GCACGACCCCAGCCCTCGCC (SEQ ID NO: 231) (nucleic acid)
guide: GCACGACCCCAGCCCUCGCCGUUUUAGAGCUAGAAAUAGCAAGUUAAAAUAAGGCUAGUCCGUUAUCAACUUGAAAAAGUGGCACCGAGUCGGUGCUUUU
modifications: sugars from the 5' end m3 r94 m3, linkages s3 o93 s3 (s phosphorothioate, o phosphodiester), T or U not given here
B3: GA235: PCSK9 gRNA; protospacer CACCGCTGCCGGCAACTTCC (SEQ ID NO: 228) (nucleic acid)
guide: CACCGCUGCCGGCAACUUCCGUUUUAGAGCUAGAAAUAGCAAGUUAAAAUAAGGCUAGUCCGUUAUCAACUUGAAAAAGUGGCACCGAGUCGGUGCUUUU
modifications: sugars from the 5' end m3 r94 m3, linkages s3 o93 s3 (s phosphorothioate, o phosphodiester), T or U not given here
B4: GA243: PCSK9 gRNA; protospacer GGCGAGGGCTGGGGTCGTGC (SEQ ID NO: 236) (nucleic acid)
guide: GGCGAGGGCUGGGGUCGUGCGUUUUAGAGCUAGAAAUAGCAAGUUAAAAUAAGGCUAGUCCGUUAUCAACUUGAAAAAGUGGCACCGAGUCGGUGCUUUU
modifications: sugars from the 5' end m3 r94 m3, linkages s3 o93 s3 (s phosphorothioate, o phosphodiester), T or U not given here
B5: GA242: PCSK9 gRNA; protospacer TCACCGCTGCCGGCAACTTC (SEQ ID NO: 235) (nucleic acid)
guide: UCACCGCUGCCGGCAACUUCGUUUUAGAGCUAGAAAUAGCAAGUUAAAAUAAGGCUAGUCCGUUAUCAACUUGAAAAAGUGGCACCGAGUCGGUGCUUUU
modifications: sugars from the 5' end m3 r94 m3, linkages s3 o93 s3 (s phosphorothioate, o phosphodiester), T or U not given here
B6: GA398 (nucleic acid)
guide: mU*mC*mA*rGrCrUrCrCrArGrGrCrGrGrUrCrCrUrGrGmGrUrUrUrUrArGmAmGmCmUmAmGmAmAmAmUmAmGmCmAmArGrUrUmArAmArAmUrAmAmGmGmCmUmArGrUrCmCrGrUrUrAmUmCrArAmCmUmUmGmAmAmAmAmAmGmUmGmGmCmAmCmCmGmAmGmUmCmGmGmUmGmCmU*mU*mU*mUmUmUmU
B7: GA395 (nucleic acid)
guide: mU*mC*mA*rGrCrUrCrCrArGrGrCrGrGrUrCrCrUrGrGmGrUrUrUrUrArGmAmGmCmUmArGmAmAmAmUmAmGmCmAmArGrUrUmArAmArAmUrAmAmGmGmCmUmArGrUmCmCrGrUrUrAmUmCrArAmCmUmUrGmAmAmAmAmAmGmUmGrGmCmAmCmCmGmAmGmUmCmGmGmUmGmCmU*mU*mU*mUmUmUmU
B8: GA399 (nucleic acid)
guide: mU*mC*mA*rGrCrUrCrCrArGrGrCrGrGrUrCrCrUrGrGmGrUrUrUrUrArGmAmGmCmUmAmGmAmAmAmUmAmGmCmAmArGrUrUmArAmArAmUrAmAmGmGmCmUmArGmUrCmCrGrUrUmAmUmCrArAmCmUmUmGmAmAmAmAmAmGmUmGmGmCmAmCmCmGmAmGmUmCmGmGmUmGmCmU*mU*mU*mUmUmUmU
B9: GA396 (nucleic acid)
guide: mU*mC*mA*rGrCrUrCrCrArGrGrCrGrGrUrCrCrUrGrGmGrUrUrUrUrArGmAmGmCmUmArGmAmAmAmUmAmGmCmAmArGrUrU*mArAmArAmUrAmAmGmGmCmUmArGrUmCmCrGrUrUrAmUmCrArAmCmUmUrGmAmAmAmAmAmGmUmGrGmCmAmCmCmGmAmGmUmCmGmGmUmGmCmU*mU*mU*mUmUmUmU
B10: GA405: gRNA targeting PCSK9 with modifications to the tracr, for SpCas9 (nucleic acid)
guide: mU*mC*mA*rGrCrUrCrCrArGrGrCrGrGrUrCrCrUrGrGmGrUrUrUrUrArGmAmGmCmUmAmGmAmAmAmUmAmGmCmAmArGrUrUmArAmArAmUrAmAmGmGmCmUmArGrUrCmCrGrUrUrAmUmCrArAmCmUmUmGmAmAmAmAmAmGmUmGmGmCmAmCmCmGmAmGmUmCmGmGmUmGmCmU*mU*mU*mUmUrUmU
B11: GA397 (nucleic acid)
guide: mU*mC*mA*rGrCrUrCrCrArGrGrCrGrGrUrCrCrUrGrGmGrUrUrUrUrArGmAmGmCmUmArGmAmAmAmUmAmGmCmAmArGrUrUmArAmArAmUrAmAmGmGmCmUmArGrUmCmCrGrUrU*rAmUmCrArAmCmUmUrGmAmAmAmAmAmGmUmGrGmCmAmCmCmGmAmGmUmCmGmGmUmGmCmU*mU*mU*mUmUmUmU

The molecules below were run on PCSK9 gene (assay: PCSK9 gRNA/SpCas9 editing in primary cynomolgus hepatocytes (Tables 2, 22)). Settings: 100 ng/RNA/mL; SpCas9 mRNA MS002 1:1 by weight.
Type: cell-based, cynomolgus monkey
Procedure: In set of experiments, PCSK9 gRNAs were co-transfected with an equivalent amount (1:1 ratio by weight) of in vitro transcribed commercially available SpCas9 mRNA MS002 purchased from TriLink Biotechnologies into primary human hepatocytes at 2500, 500, or 100 ng/RNA/mL and processed as described in detailed methods. Extracted genomic DNA was analyzed for gene editing at the target site with next-generation sequencing of PCR amplicons generated around the target sites. Samples were prepared using the Nextera XT DNA library preparation kit (Illumina) according to the manufacturer's protocol. Briefly, two rounds of PCR were performed first to amplify the region of interest and second to add DNA sequences required for next generation sequencing and sample identification to the initial product. The final amplicon was sequenced on the Illumina MiSeq instrument according to the manufacturer's protocol. A wide range of editing activities (Table 2) were observed. In a second set of experiments, ANGPTL3 gRNAs were co-transfected with an equivalent amount of in vitro transcribed SpCas9 mRNA (1:1 ratio by weight) into primary human hepatocytes and processed and analyzed similarly (Table 3).
[…] Genomic DNA was processed, sequenced, and analyzed as described in the detailed methods section. GA266 was transfected independently twice to serve as two positive controls.
Plating, culturing, and transfection of primary hepatocytes. Primary human liver hepatocytes (PHH) and primary cynomolgus liver hepatocytes (PCH) from BioIVT were cultured per the manufacturer's protocol. Briefly, primary human hepatocytes and primary cyno hepatocytes were obtained as frozen aliquots from BioIVT. Four lots of primary human hepatocytes, each derived from a de-identified individual donor, were used for the experiments: STL (main donor) was used for all experiments, including screening experiments and off-target experiments; HLY, JLP, and TLY were used for off-target experiments. The HFG lot of primary cyno hepatocytes were used for experiments. Following the manufacturer's instructions, cells were thawed and rinsed prior to plating in 24-well plates that had been coated with bovine collagen overnight, with a density of approximate 350,000 cells/well in INVITROGRO hepatocyte medium supplemented with TORPEDO antibiotic mix (BioIVT). The cells were thawed and resuspended in hepatocyte thawing medium followed by centrifugation at 100 g for 10 min at 4° C. The supernatant was discarded, and the pelleted cells resuspended in hepatocyte plating medium. Each vial contains approximately 5 million cells that were used for plating one 24-well plate. Plated cells were allowed to settle and adhere for 4-6 h in a tissue culture incubator at 37° C. under 5% CO2 atmosphere. After incubation, cells were checked for monolayer formation. The incubating media were then replaced with fresh hepatocyte maintenance media (complete INVITROGRO medium obtained from BioIVT, the cell line provider). The cells thus became ready for transfection. Each of the gRNAs were co-transfected with an equivalent amount of in vitro transcribed ABE8.8 mRNA (1:1 ratio by molecular weight) into primary human hepatocytes via MessengerMax reagent (Lipofectamine), using various dilutions to assess for editing activity at different concentrations of test article. MessengerMAX from Thermo Fisher is used for transfection. Solution A: desired amount of guide RNA is mixed with 1:1 wt ratio of mRNA in OptiMEM. Solution B: MessengerMAX in OptiMEM. After mixing solutions A and B, the mixture was incubated at room temperature for 20 min. 60 μL of the incubated solution was added dropwise to each cell wells. For protospacer sequences that were a perfect match to the corresponding cynomolgous monkey PCSK9 or ANGPTL3 gene sequence, each gRNA was also co-transfected with an equivalent amount of ABE8.8 mRNA (1:1 ratio by molecular weight) into primary cynomolgous hepatocytes, and followed the same transfection protocol. […]

| Molecule | Cyno Primary Hepatocyte Editing % 100 [%] |
| --- | --- |
| B1 | 1.63 |
| B2 | 0.94 |
| B3 | 2.51 |
| B4 | 0.51 |
| B5 | 1.79 |

Same assay, conditions: 500 ng/RNA/mL; SpCas9 mRNA MS002 1:1 by weight

| Molecule | Cyno Primary Hepatocyte Editing % 500 [%] |
| --- | --- |
| B1 | 7.89 |
| B2 | 4.01 |
| B3 | 17.51 |
| B4 | 1.84 |
| B5 | 7.13 |

Same assay, conditions: 2500 ng/RNA/mL; SpCas9 mRNA MS002 1:1 by weight

| Molecule | Cyno Primary Hepatocyte Editing % 2500 [%] |
| --- | --- |
| B1 | 28.16 |
| B2 | 17.92 |
| B3 | 50.03 |
| B4 | 10.18 |
| B5 | 31.71 |

Same assay, conditions: SpCas9 mRNA MS002, 625 ng/test article/mL, rep1

| Molecule | Cynomolgus Primary Hepatocytes-% Editing [%] |
| --- | --- |
| B6 | 39.09 |
| B7 | 33.87 |
| B8 | 37.75 |
| B9 | 44.44 |
| B10 | 26.2 |
| B11 | 40.72 |

Same assay, conditions: SpCas9 mRNA MS002, 625 ng/test article/mL, rep2

| Molecule | Cynomolgus Primary Hepatocytes-% Editing [%] |
| --- | --- |
| B6 | 44 |
| B7 | 34.57 |
| B8 | 41.8 |
| B9 | 41.53 |
| B10 | 26.36 |
| B11 | 46.28 |

Same assay, conditions: SpCas9 mRNA MS002, 1250 ng/test article/mL, rep1

| Molecule | Cynomolgus Primary Hepatocytes-% Editing [%] |
| --- | --- |
| B6 | 56.45 |
| B7 | 41.48 |
| B8 | 55.55 |
| B9 | 56.02 |
| B10 | 35.84 |
| B11 | 56.47 |

Same assay, conditions: SpCas9 mRNA MS002, 1250 ng/test article/mL, rep2

| Molecule | Cynomolgus Primary Hepatocytes-% Editing [%] |
| --- | --- |
| B6 | 55.21 |
| B7 | 44.35 |
| B8 | 53.02 |
| B9 | 52.02 |
| B10 | 35.88 |
| B11 | 58.68 |

Same assay, conditions: SpCas9 mRNA MS002, 2500 ng/test article/mL, rep1

| Molecule | Cynomolgus Primary Hepatocytes-% Editing [%] |
| --- | --- |
| B6 | 59.85 |
| B7 | 43.91 |
| B8 | 58.97 |
| B9 | 53.98 |
| B10 | 41.85 |
| B11 | 56.65 |

Same assay, conditions: SpCas9 mRNA MS002, 2500 ng/test article/mL, rep2

| Molecule | Cynomolgus Primary Hepatocytes-% Editing [%] |
| --- | --- |
| B6 | 63.97 |
| B7 | 49.53 |
| B8 | 62.75 |
| B9 | 56.84 |
| B10 | 47.33 |
| B11 | 58.59 |

Same assay, conditions: SpCas9 mRNA MS002; 2500, 1250, 625 ng/test article/mL

| Molecule | editing efficiency compared to positive control GA266 |
| --- | --- |
| B10 | slightly lower editing efficiency |
